Measured values as given in patent US20160257710A1, “SELECTIVE INHIBITORS OF PROTEINASE 3” (INSERM (INSTITUT NATIONAL DE LA SANTÉ ET LA RECHERCHE …, priority 2013, published 2016).
Substitutions are numbered along the chain they refer to. Where no end group is shown, it is not given here. [ ]: non-standard residue; d: D form. The star is where a group is joined. pNA = O=[N+]([O-])c1ccc(N*)cc1; AlaP = not defined here; Ahx = NCCCCCC(=O)O; pentyl = CCCCC*

Key:
Proteinase 3 = molecular target: T1, Proteinase 3 (Homo sapiens, UniProt P24158); test: Protease inhibition assay, second order rate constant kobs/[I] (method of Tian and Tsou); type: biochemical; conditions: for kobs/I range: PR3; for effect of P5 group on kobs/I: ammonium, Trp or Ile at P5
T1 sequence (P24158 28-248): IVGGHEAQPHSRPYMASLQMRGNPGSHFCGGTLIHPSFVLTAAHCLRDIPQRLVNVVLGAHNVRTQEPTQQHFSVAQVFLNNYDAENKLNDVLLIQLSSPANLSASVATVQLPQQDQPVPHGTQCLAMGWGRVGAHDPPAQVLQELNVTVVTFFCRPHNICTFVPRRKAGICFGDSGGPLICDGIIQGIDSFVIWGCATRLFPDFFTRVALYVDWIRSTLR
Experimental: The compounds of the invention are advantageously selective inhibitors of PR3. […] As described under the Examples below (see PR3 inhibition assay), and as is generally known, efficacy of particular inhibitors against a target protease, for example, recombinant human PR3, is determined by combining the target with a substrate (for example Suc-AanV-SBzI), both in the absence of the inhibitor and in the present of different concentrations of such inhibitor to be tested. Typically, the efficacy of irreversible inhibitors are measured in terms of the second order rate constant of inhibition value (11) or kobs/l. Preferred inhibitors of the invention have typically a kobs/I of more than 10 M^−1s^−1, preferably more than 100 M^−1s^−1, and more preferably of more than […].
(§1) The inactivation of proteases by substrate analog inhibitors in the presence of the substrate by competition for the enzyme-binding site, was measured by the method of Tian and Tsou (17). In this system, product formation in the presence of an irreversible inhibitor approaches an asymptote, as described by
(§2) log([P∞]−[P])=log [P∞]−0.43A[Y]t
(§3) where [P∞] is the concentration of product formed at time approaching infinity, [P] is the concentration of product at time t, [Y] is the inhibitor concentration, and A is the apparent inhibition rate constant in the presence of the substrate. A is given by
(§4) where k+0 is the rate constant for association of the inhibitor with the enzyme, K^−1 is the inverted Michaelis constant, and [S] the substrate concentration. The apparent inhibition rate constant A is the slope of a plot of log([P∞]−[P]) against t, to give the second-order rate constant of inhibition k+0

Elastase = molecular target: T2, Elastase (Homo sapiens, UniProt P08246); test: as above; type: biochemical; conditions: n.s where no significant inhibition
T2 sequence (P08246 30-267): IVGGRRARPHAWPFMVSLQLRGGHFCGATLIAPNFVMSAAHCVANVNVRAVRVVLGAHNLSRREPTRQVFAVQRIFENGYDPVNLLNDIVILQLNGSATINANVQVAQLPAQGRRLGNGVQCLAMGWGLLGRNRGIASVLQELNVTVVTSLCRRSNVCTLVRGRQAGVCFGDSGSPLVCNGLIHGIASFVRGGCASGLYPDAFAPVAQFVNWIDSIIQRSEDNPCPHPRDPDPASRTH
Experimental: as §1, §2, §3, §4

HNE [1] = molecular target: T3, HNE (Homo sapiens, UniProt P08246); test: Hydrolysis of paranitroanilide substrates, kcat/KM; type: biochemical
T3 sequence (P08246 30-267): T2 sequence (P08246 30-267)
Experimental: (§5) Then we used the peptidyl sequences DYDA- and PYDA- to construct two paranitroanlide substrates bearing this sequence from P4 to P1. Ac-DYDA-pNA and Ac-PYDA-pNA were assayed with purified PR3 and HNE and the specificity constants kcat/Km were determined. […] We then constructed phosphonate inhibitors with the same peptidyl sequence i.e. Ac-DYDA^P(Oph-p-Cl)2 and Ac-PYDA^P(Oph-p-Cl)2.

wtPR3 = molecular target: T4, wtPR3 (Homo sapiens, UniProt P24158); test: Hydrolysis of paranitroanilide substrates, kcat/KM; type: biochemical
T4 sequence (P24158 28-248): T1 sequence (P24158 28-248)
Experimental: as §5

CatG = molecular target: T5, CatG (Homo sapiens, UniProt P08311); test: Residual activity of purified protease with FRET substrate in presence of increasing amounts of compound; type: biochemical; conditions: CatG 1 nM, same experimental conditions as PR3
T5 sequence (P08311 21-244): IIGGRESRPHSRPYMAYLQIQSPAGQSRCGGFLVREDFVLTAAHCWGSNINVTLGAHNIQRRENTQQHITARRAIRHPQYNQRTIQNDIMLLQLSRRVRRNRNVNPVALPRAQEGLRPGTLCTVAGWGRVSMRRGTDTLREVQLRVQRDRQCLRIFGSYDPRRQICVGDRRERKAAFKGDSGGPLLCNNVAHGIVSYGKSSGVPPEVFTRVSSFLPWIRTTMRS
Description: (§6) Phosphonate inhibitors and their biotinylated and fluorescent derivatives were synthesized, purified and controlled by mass spectrometry as reported. Their purity was checked by HPLC (data not shown). Purified Ac-Asp-Tyr-Asp-Ala^P(O—C6H4-4-Cl)2 (compound 1) and Ac-Pro-Tyr-Asp-Ala^P(O—C6H4-4-Cl)2 (compound 2) were first assayed for their inhibitory properties by measuring the residual activity of the human neutrophil serine proteases PR3, HNE and CatG in the presence of increasing amounts of each compound. We used for this purpose the FRET substrates that we developed previously for each protease (18). An almost complete inhibition of PR3 (1 nM final) was obtained after a 30 min incubation time with 20 μM of compound 1 (FIG. 1) and 0.3 μM of compound 2 (FIG. 2). Recombinant PR3K99L, […], HNE and CatG were used in the same experimental conditions. […] This emphasizes the importance of the S2 and S4 subsites to discriminate between PR3 and HNE specificities. Significant inhibition of HNE was obtained using about 100 times more Ac-Pro-Tyr-Asp-Ala^P(O—C6H4-4-Cl)2 than required to inhibit PR3. […] We confirmed this observation kinetically by measuring the second order rate constants kobs/l by competition experiments between the PR3 substrate and each inhibitor (17). As expected the second order rate constant kobs/l for compound 2 was about 100 times greater than that for compound 1 (see Table 1).

HNE [2] = molecular target: T3, HNE; test: as above; type: biochemical; conditions: HNE 1 nM, same experimental conditions as PR3
Description: as §6

PR3 [3] = molecular target: T6, PR3 (Homo sapiens, UniProt P24158); test: as above; type: biochemical; conditions: PR3 1 nM final, 30 min incubation
T6 construct: in a lysate of purified human neutrophils; endogenous in cells; host or cells: purified human neutrophils (lysate)
T6 sequence (P24158 28-248): T1 sequence (P24158 28-248)
Description: as §6

PR3I217R = molecular target: T7, PR3I217R (Homo sapiens, UniProt P24158, I221R); test: Residual activity of recombinant PR3 mutant in presence of increasing amounts of compound; type: biochemical
T7 construct: made in house; host or cells: Drosophila S2 cells
T7 sequence (P24158 28-248 I221R limits assumed): T1 sequence (P24158 28-248) with I194R
Experimental: (§7) Recombinant PR3K99L and […] were produced in Drosophila S2 cells using the calcium phosphate method, and stable cell lines were selected using puromycin. Proteins were purified by affinity chromatography on Chelating Sepharose and analyzed by SDS-PAGE. The total protein concentration was determined with a BCA Protein Assay
as §6

PR3K99L = molecular target: T8, PR3K99L (Homo sapiens, UniProt P24158, K115L); test: as above; type: biochemical; conditions: Lys99 replaced by Leu in S2 subsite
T8 construct: made in house; host or cells: Drosophila S2 cells
T8 sequence (P24158 28-248 K115L limits assumed): T1 sequence (P24158 28-248) with K88L
Experimental: as §7, §6

PR3 [4] = molecular target: T6, PR3; test: Inhibition of PR3 in a lysate of purified human neutrophils; type: biochemical; conditions: conditions as with purified proteases
Description: (§8) We first studied the stability and the selectivity of compound 1, 2 and their biotinylated derivatives in a lysate of purified human neutrophils. […] Further, PR3 was selectively inactivated in the neutrophil lysate as shown by western blotting using biotinylated inhibitors.

[5] = Stability of inhibitors in neutrophil lysate (preincubation before adding substrates); type: in vitro ADME, human; conditions: one hour preincubation of neutrophil lysate-inhibitor mixture
Description: as §8

Substance	Proteinase 3 kobs/[I] (Proteinase 3) [M⁻¹ s⁻¹]	Elastase kobs/[I] (Elastase)	also measured
CH3(CH2)4-Pro-Tyr-Asp-Ala^P(O—C6H4-4-Cl)2 (pentyl-PYD[AlaP]; not fully specified (C-terminus); printed as CH3(CH2)4-Pro-Tyr-Asp-Ala^P(O—C6H4-4-Cl)2; reading uncertain; also: C-terminal Ala as phosphonate analogue (Ala^P)) [Compound 8]	4418 ± 329	n.s	kobs/I range (Proteinase 3): ~10^3 M^−1s^−1
Ac-Pro-Tyr-Phe-Ala^P(O—C6H4-4-Cl)2 (Ac-PYF[AlaP]; not fully specified (C-terminus); printed as Ac-Pro-Tyr-Phe-Ala^{P}(O—C₆H₄-4-Cl)₂; reading uncertain; also: C-terminal Ala as phosphonate analogue (Ala^P)) [Compound 7]	2.1 ± 0.2	n.s	–
Biotin-PEG3000-Pro-Tyr-Asp-Ala^P(O—C6H4-4-Cl)2 [Compound 13]	1163 ± 0.1	46.5 M⁻¹ s⁻¹	–
Ac-PYDA-pNA	–	–	cleavage by purified HNE (HNE [1]): did not cleave; cleavage by purified PR3 (wtPR3): rapidly cleaved
Ac-DYDA-pNA	–	–	cleavage by purified HNE (HNE [1]): did not cleave; cleavage by purified PR3 (wtPR3): rapidly cleaved
Ac-Ile-Pro-Tyr-Asp-Ala^P(O—C6H4-4-Cl)2 (Ac-IPYD[AlaP]; not fully specified (C-terminus); printed as Ac-Ile-Pro-Tyr-Asp-Ala^{P}(O—C₆H₄-4-Cl)₂; reading uncertain; also: C-terminal Ala as phosphonate analogue (Ala^P)) [Compound 12]	46 ± 0.1	15.1 ± 1.6 M⁻¹ s⁻¹	effect of P5 group on kobs/I (Proteinase 3): did not significantly increase
^+H2N-Pro-Tyr-Asp-Ala^P(O—C6H4-4-Cl)2 (H-PYD[AlaP]; not fully specified (C-terminus); printed as ^+H2N-Pro-Tyr-Asp-Ala^P(O—C6H4-4-Cl)2; reading uncertain; also: C-terminal Ala as phosphonate analogue (Ala^P)) [Compound 10]	4.7 ± 0.5	n.s	effect of P5 group on kobs/I (Proteinase 3): did not significantly increase
Biotin-Val-Tyr-Asp-Ala^P(O—C6H4-4-Cl)2 [Compound 6]	17396 ± 835	n.s	–
Biotin-Asp-Tyr-Asp-Ala^P(O—C6H4-4-Cl)2 [Compound 3]	18 ± 2.8	n.s	–
Ac-Ahx-Pro-Tyr-Asp-Ala^P(O—C6H4-4-Cl)2 ({Ac-Ahx}-PYD[AlaP]; not fully specified (C-terminus); printed as Ac-Ahx-Pro-Tyr-Asp-Ala^P(O—C6H4-4-Cl)2; reading uncertain; also: C-terminal Ala as phosphonate analogue (Ala^P)) [Compound 9]	2159 ± 235	n.s	kobs/I range (Proteinase 3): ~10^3 M^−1s^−1
Biotin-Pro-Tyr-Asp-Avl^P(O—C6H4-4-Cl)2 [Compound 5]	33360 ± 4150	n.s	–
Ac-Asp-Tyr-Asp-Ala^P(O—C6H4-4-Cl)2 (Ac-DYD[AlaP]; not fully specified (C-terminus); printed as Ac-Asp-Tyr-Asp-Ala^P(O—C6H4-4-Cl)2; reading uncertain; also: C-terminal Ala as phosphonate analogue (Ala^P)) [Compound 1]	1.9 ± 0.3	n.s	inhibition of CatG (CatG): no significant inhibition; inhibition of HNE (HNE [2]): no significant inhibition; concentration giving almost complete inhibition of PR3 (PR3 [3]): 20 µM; inhibition of the Ile217 to Arg217 PR3 mutant compared with PR3K99L (PR3I217R): more efficient toward this mutant; sensitivity of PR3K99L to inhibition compared with wt PR3 (PR3K99L): far less sensitive to inhibition; PR3 activity in neutrophil lysate (PR3 [4]): totally inactivated; inhibition potential after preincubation in neutrophil lysate [5]: No loss of the inhibition potential
Ac-Trp-Pro-Tyr-Asp-Ala^P(O—C6H4-4-Cl)2 (Ac-WPYD[AlaP]; not fully specified (C-terminus); printed as Ac-Trp-Pro-Tyr-Asp-Ala^{P}(O—C₆H₄-4-Cl)₂; reading uncertain; also: C-terminal Ala as phosphonate analogue (Ala^P)) [Compound 11]	15 ± 0.1	n.s	effect of P5 group on kobs/I (Proteinase 3): did not significantly increase
